Measured values from the domain aggregation screens of Martell et al. (2025).

Test: soluble fraction after stress (log2 fold change); higher = more stays soluble; pooled small domains, quantitative proteomics
Conditions: stress: 50 degC
Method in brief: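 Each library was heated to 50°C as a stress step. The libraries, made up of small protein domains, were pooled and analysed at high throughput by quantitative proteomics. The reported value is the base-two logarithm of the fold change in each protein's soluble amount after stress, taken as a measure of aggregation propensity. The higher the value, the more protein stays in solution.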

HMDWREMTAWMAELLKRRTGDDVETWNARVRESGAHDEASLRAWLTEQGVTGYAQTLLVMERFGYPDFF
soluble fraction (log2): -1.22

HMLERPLKLKSHYVSTIYEKVAVQYSEGEEKKSVMGTLIEVNQDTIVLDDRGTIIEIPFKSITRAKTVF
soluble fraction (log2): -0.245

HMKNIMRQWIELEPDQGKIRSKLYSLDRVVEETTNEVGMIKLLLEIDEKELNNLVSHNDIRLV
soluble fraction (log2): -0.21

HMTPVSQIATKDIEEKIDSLSDEYKDPFILHFKGFKYKEIADQLDIPIGTVKSRIFIARKKLIDLLPDY
soluble fraction (log2): -0.115

HMTDIKYLIADGNDIKHWDTASSSYVKVSELPLTSDKFKIYGDDIYHKERTGIIAASPILKIWSPSAE
soluble fraction (log2): 0.369

HMPEITPAMIKALLSSLSEELAFASVTKVYAVLHNLFKAALLDDTIDRNPMDKVPRPRKSKDAAL
soluble fraction (log2): -0.38

HMDSDMGQQLKTLLTVGTFMSSKELKAIAQQLGLKKPTDLKEWVELESGTQRIEGKPTKGYWIKMNDINN
soluble fraction (log2): 0.159

HMNEDYSSMVGKTGFALTILRPAGKIMIEEEVFDAVAINGYISKGQEVEVVRYENAQLYVKVK
soluble fraction (log2): -0.386

HMENFKVFMKAVQEVSPVPVRFDEISSGAKGYYSNTEKEIVIQNGMSESQTMKTGIHEVTHAMLHDRDF
soluble fraction (log2): 0.113

HMTTGEIIQRERTRLGLSQEKLAEQVGVSRQAVSKWELGDAVPDTDKLVPLARTLGISVDTLLD
soluble fraction (log2): 0.0247

HMGIFDIIQEINRQGVTVLLIEQNANMALKIADVGYVLETGRISLTGSGRELLANEAVKKAYL
soluble fraction (log2): -0.0514

HMLPDSQLMKEATAWFMRQAADDFSGAERRRLDAWRAQSPAHARAYHQVQALWNAPELQQAAAR
soluble fraction (log2): -0.0227

HMQSEISRIGRILKERRLQLGYTQEYAAEKAGISYSYYTKIERGQQLPSLEVAMVLSKTFSLSMDRWL
soluble fraction (log2): -4.77

HMSPRADRSVNLDVGETVQIDDWGADGTAQIRYRGAPWTAVLRPGHTPHPGPHRVIELVGSRLLVEP
soluble fraction (log2): -0.0121

HMSVDIWTGAQTGNIEAVKQHLADGVDVNSKSDIGRTALDVAIAFKQPLITDLLRKHGGKTRDELKAAE
soluble fraction (log2): 0.545

HMPLNAHIVGRGKRDRRGKRGAPYSIVLELGRDENGKRIQKWYSGYPTKAAAEEDKIRMLRELQTGEYVPQ
soluble fraction (log2): -0.309

HMSKPTLTLKSNAYPYNLNGERINNYLGFTYIKKGATLNYQGSKRINGQNYYYIGDGAYIKNTTVGSTNN
soluble fraction (log2): -1.51

HMKWIEILKSKDGNYALLQDEKDTQFVVASGYNPDAAEDQKWGHGSYFIYWNNKENKAEMLMNAIDLFRYR
soluble fraction (log2): -2.11

HMRIAQYRQIENDLLEQINLGYYKKGDLIPTELELSATYHVSRVTVRKATDNLVAKGILQRVAGVGTFVSR
soluble fraction (log2): -1.87

HMEPEWVINTDGSNLNEILAIDEVDSRKTFSNDLQEVYRTFGIEAARQILVQEIDAVIESSGA
soluble fraction (log2): 0.199

HMVLENLKKFIDSKGISVSAFEKSIGMSNNSFRKSLNSGGHIGSDKLENILKIYPELNPVWLLQGEGEML
soluble fraction (log2): -0.27

HMRIATVTPIEEDQASDRVVAVYNDIKSTKQIDFIPNFWKVIAVNPDLLEQVWGQLKTLMHPEEVG
soluble fraction (log2): -0.659

HMKPLRPVHLEIQTHRLSPVGILRSSFRQAGKVMHSNHGRITGLNLEQLKLIQAAFAGEALPK
soluble fraction (log2): -0.0219

HMVRRSERLHALTESLRRSGNRGRTAEQLATEFEVSVRTIKRDLVALEASGLPLWSRPGPGGGYGLLS
soluble fraction (log2): -1.02

HMEPPPSYSALLKQISSGKVKELQLVPARREVIVTYPDGRSATVAILANDQQILRTAEAAGTPLLVK
soluble fraction (log2): 0.207

HMNYLDVNIPVTSAVWMGKQLPEMGTLIYLTPDKDVEGMLFIKQATKDKPDGEYIEAKVLGYKEGRVLFDF
soluble fraction (log2): -0.547

HMVEPDELTEREREVLQFVARGLSNKEIGAALALSPHTIKAHLRSILDKLHLRSRAEAAAWAVRSGLS
soluble fraction (log2): -0.143

HMQLDLTSTLDHMYKQMRNDHPRALLMAVEKEMVLRALKETDGNQLRASDILGISRSTLRKRIEEFDINS
soluble fraction (log2): -1.09

HMKQISNTDELETMVKKIIDDNEEQVNKYRGGNEKLFGWFVGQAMKNTGGTANPKVVNEILSKLLK
soluble fraction (log2): 0.0976

HMQPADYSDLYAAAKSAGEADMRAAFALTDKQERTAAVNAARETIKAALSEEQLADANLGSALKKLEAGV
soluble fraction (log2): -0.337

HMDAEKHIVTPEAGLRLDRALTDALPNLSRSRVKQLINEGLVTTENKTITAPSYRVKYGDSFEISIPPPT
soluble fraction (log2): -0.0636

HMNFFQEIGNSILIELNKKNWTQSMFAHKIGVSDEVFKQIVQGKKALNAVEIAKIANTLDVDPEKLLRK
soluble fraction (log2): -0.191

HMFSMKDFGQRLRQLRKERGLTQGDLARLAKIDIMQVSRYERGLGLPSLETAIALARVLETSTDLLFLG
soluble fraction (log2): -1.46

HMTTLTPIGKMKGEIDGDFEAFYLAVDKDGQVYLNRDPDYSENRYEKSRGWELVTREQLAVYEKELHFIP
soluble fraction (log2): -0.406

HMVSFAEQASDWLAHFDRLGDVGPDTTLTDLTARDAEFSAWVNEGIHHRVAFLETLAAWHRTER
soluble fraction (log2): -0.774

HMPPNPELGKKLLKLRKEFKMTQDDVANILGMSRTSFSKYENGIANPPLQVMRKLASIYNVGLEYLI
soluble fraction (log2): -1.04

HMGNEVMYRQDLSEQELLSFIKKYTGQDEVTHIVVGAPKQRDNTPSPVETKITPFVVQLKAQFPDVNVV
soluble fraction (log2): 0.115

HMSMHVHTPNPDFKPSNTNALQEGQLVEHPKFGFGKVQKIETEGLNKKASIQFEHFGEKTLLLSFAKLRII
soluble fraction (log2): 0.0178

HMQTLQNNLKQIRSRVGLTQGELASRAGISRQAYSTLESGNANPSTEVSLRLAEALNERIESLFFLANQ
soluble fraction (log2): -0.275

HMNPAYTDSRMKTFLEELPVMKASLSQKHVTRFLVWQEYIGRHPDGYGKSQFFYHLKQNLVAAKG
soluble fraction (log2): -0.56

HMENEIVMPVQINGKKRGDLTIARDADQASIQKAVLELDFVKAALNGGSPKKVIVVPQRIVNVV
soluble fraction (log2): 0.325

HMDDERDRLVQQAMEGLSPALREILLLAYFQRMPYNQIAESLRIPLGTVKSRLHAAVAAFAKRWQELNRS
soluble fraction (log2): -0.693

HMSAPLKELGNDPESGKPIVVKDGRFGAYVTDGETNATLRKTDAVESLTPERAAELLAEKRAKG
soluble fraction (log2): 0.168

HMEMTDKEEELMRIFWNHGPMFVREIVELYPEPRPHFNTLSTFVRNLEQKGFVSHEAVGGSFRYYAV
soluble fraction (log2): -1.26

HMKKVIKIEENVSLQKLAALMSLKVTDVLMRLLSMGMSGVNINSTIDADTAKILASEFGWTVED
soluble fraction (log2): -0.743

HMVVVMNADAEADEIKRVKWNLEQMLFRTQVIYGVKRIVIGAIGDQREVDLSEIEQMPKVDKIVRISK
soluble fraction (log2): -1.4

HMGRKIDDPSSMTGAEKAAVILLALGDEQRQLWEMMDDEEIRVVSQAMVNLGNVTSGAVEKLIMEFVGSMS
soluble fraction (log2): -0.243

HMTNADRYIGQEATVTEKISNELSTGAVRIGGLVWTARTVDNSEAEEGERVTVEAIEGAKLLVKRR
soluble fraction (log2): -0.0108

HMDFKKKIIESWADIAETLRGLTVDSNISDWTTKQKNAYETLADKAELAGLSIADLNSILVELGYM
soluble fraction (log2): -0.0868

HMEYYIMPVANLHKVVVDGKDMSNLISNNAIAVKANVIDEGQIQIKPGEIIITTPAGVSPEEAVRSP
soluble fraction (log2): 0.441

HMNKIGTIVSINGPIVKTAGDVGFVMHEMVYVGKEKLVGEVIGLTTDFTIVEVYEETSGIKPGETIEGT
soluble fraction (log2): -1.5

HMQALDETTVSRIRQKAAARNLLLKVLAGQLGVARPTLSNVLARREAPSAALAARIRAFLDSP
soluble fraction (log2): -0.894

HMAEELELFHRLISVTGVGPKGALGFLSQLKPQEIILAILSDDVKTLSKAPGVGRKTAQRVILELKDKF
soluble fraction (log2): -1.14

HMDYNMEEWSLTADQLKSGDTILILNLGKTATLLESTRGKKNVRVRMGNIKTIVETSSIRGNPHQ
soluble fraction (log2): -0.878

HMDQEDAYMQVRQVFDTLLVSELSKRIFAWRFFEGKSFAEWPGAESQKFLYDTFNRILLIISAKIRRKNA
soluble fraction (log2): -0.0448

HMNQSYQLWIKDDELGPTPRSVGVLNEHFEVDPAALTNYDAELLRRATFGISLEPRGGSPTGQP
soluble fraction (log2): -0.0224

HMQNREQNILDGKSILDKELKRVGLLNQSAAIMAQEMKFNSQDDLFAALGSGATRIGQIINHLQKQS
soluble fraction (log2): -0.00642

HMSTSERLKQVMEVKGFNLKTFSEQADIPYRTLQNYILTNREPSAESLAKLHSQLGINLNWLMSGKGEMF
soluble fraction (log2): -0.283

HMGDADDLSRELLQQGLSLKEAVADFERRYLQQAMQRHSSIASVSEALDVHFSTLWRKLVKYNLV
soluble fraction (log2): -0.047

HMKRRSVIVSVVRAQVRQSADEAAAVVFEAEKNVSLDYLETMPGGWVKVRHRDGQTGFVRVNQIWG
soluble fraction (log2): -0.807

HMNPLDGTSVHPESYEAAEKLLKKQGFSLEDISGGKLTGLSLTIKDYARLAKELEIGEITLRDIVKELEK
soluble fraction (log2): 0.0193

HMDAMLGEALRLIRVYHDLKQKQAAERLEVSTSYLSEIERGLKTPTLDIIQRYATVFDMPVSSIMFFSENL
soluble fraction (log2): -3.03

HMGDYDHYVVKVEDTLLNWLVTNVTTMSRNKLKDILAGQGIKVNGKITTKYDYPLTPGMKIAISKTKR
soluble fraction (log2): -0.275

HMSKQEFVDRLRVSLSGKISPASVEDNARYYEDYINTHIRLGEPEEDVLEGLGDPRLIARSIVAAESV
soluble fraction (log2): 0.0896

HMAGATDTVRNLLERQIREGELLPGQRLPTEPELAARLGVSRNSLREALQSLEDSGLIVKRHGIGTFVTE
soluble fraction (log2): 0.0848

HMAITYETKVISGVNLRSAPSTSASVYQLIPKGENIHVVQKVNDYWLKVQTKDGKTGYISASSKYTNYIG
soluble fraction (log2): -0.773

HMQVLLTRREKEILKLIAEGLTSAEIGKRLFISTTTVDTHRKHLLEKLKAGNTAILIKTAVQLDLI
soluble fraction (log2): -1.26

HMKIDELKAYLFQSVRVKNPHTQEYDTLKIIELNYYQDKIKAKLKNSDDDYITEMIFESIKHLQNFLG
soluble fraction (log2): -0.298

HMDPTYYFNLYPNPSKDEVSLFTNFTGKINIEILDLAGKSILSDNPISTISLVSLKEGLYLVKVKS
soluble fraction (log2): -0.208

HMGKASNEVYEVISSKIRTGEWAPGYKLPSEPTLAEEFGVSRATVREALQELISRGRIKREQGRGTYVLH
soluble fraction (log2): 0.161

HMSFGWELYKGKEGIADTDLHPSGWIRIADKRVFAVSEGEFIEKGLEIIVLSVDGNRIVVRELK
soluble fraction (log2): -1.39

HMQDVWEPFLAKGYVFADGMLTKLIHKRGDVYKTQEIGSDKIIYVIKDGDTFAHGKTVKAAMLDLAFKKS
soluble fraction (log2): -1.29

HMEGNLVEIFEDAFGRTMSTMDIEYINQFKRTGYDDEMIVSALREAVKSNALSFRYIERVLENWAHS
soluble fraction (log2): -0.202

HMREISSDELHSLFSADQRGDLVINETTRLSIEKLYALHTPEEREAKVNELSGVLPSEAHRQLVHFLDYFD
soluble fraction (log2): -1.26

HMPETYVVFSKDGYANLRRGTTINSEILDVLDNGEYVTKLDEVGEWYRVEYADFDGGYIHKSQLKNI
soluble fraction (log2): -0.252
